Square brackets hold non-standard residues; d marks the D form. Dap = NC[C@H](N)C(=O)O
Biological target: His-tagged SRPK1ΔNS3 (UniProt Q96SB4 1-655)
Assay: MST

Sequence of His-tagged SRPK1ΔNS3 (Q96SB4 other isoform, or with tags, fused parts or gaps mutant): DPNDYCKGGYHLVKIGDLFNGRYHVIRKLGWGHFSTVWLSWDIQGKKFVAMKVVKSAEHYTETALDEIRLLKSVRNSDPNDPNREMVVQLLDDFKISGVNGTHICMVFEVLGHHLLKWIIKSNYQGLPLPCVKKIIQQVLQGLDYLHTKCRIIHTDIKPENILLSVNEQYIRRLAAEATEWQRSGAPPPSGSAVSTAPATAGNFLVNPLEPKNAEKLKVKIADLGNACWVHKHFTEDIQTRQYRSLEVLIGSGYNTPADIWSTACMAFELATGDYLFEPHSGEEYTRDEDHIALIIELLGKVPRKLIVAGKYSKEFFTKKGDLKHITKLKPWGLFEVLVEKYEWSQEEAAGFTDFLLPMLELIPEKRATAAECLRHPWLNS

Ac-RERARTRR[Dap](aryl‑SO2F)RARTRERARTR-NH2 [covalent docking blocker of SRPK (C-DBS)]
Kd: 1470 nM
